# Article PMC7367873, “Dissecting the sequence determinants for dephosphorylation by the catalytic subunits of phosphatases PP1 and PP2A” (Nature Communications, 2020)
# B1: CKAP4 (protein, UniProt Q07065 1-602, looked up)
# Cytoskeleton-associated …: MPSAKQRGSKGGHGAASPSEKGAHPSGGADDVAKKPPPAPQQPPPPPAPHPQQHPQQHPQNQAHGKGGHRGGGGGGGKSSSSSSASAAAAAAAASSSASCSRRLGRALNFLFYLALVAAAAFSGWCVHHVLEEVQQVRRSHQDFSRQREELGQGLQGVEQKVQSLQATFGTFESILRSSQHKQDLTEKAVKQGESEVSRISEVLQKLQNEILKDLSDGIHVVKDARERDFTSLENTVEERLTELTKSINDNIAIFTEVQKRSQKEINDMKAKVASLEESEGNKQDLKALKEAVKEIQTSAKSREWDMEALRSTLQTMESDIYTEVRELVSLKQEQQAFKEAADTERLALQALTEKLLRSEESVSRLPEEIRRLEEELRQLKSDSHGPKEDGGFRHSEAFEALQQKSQGLDSRLQHVEDGVLSMQVASARQTESLESLLSKSQEHEQRLAALQGRLEGLGSSEADQDGLASTVRSLGETQLVLYGDVEELKRSVGELPSTVESLQKVQEQVHTLLSQDQAQAARLPPQDFLDRLSSLDNLKASVSQVEADLKMLRTAVDSLVAYSVKIETNENNLESAKGLLDDLRNDLDRLFVKVEKIHEKV
# B2: CCDC124 (protein, UniProt Q96CT7 1-223, looked up)
# Coiled-coil domain-containing …: MPKKFQGENTKSAAARARRAEAKAAADAKKQKELEDAYWKDDDKHVMRKEQRKEEKEKRRLDQLERKKETQRLLEEEDSKLKGGKAPRVATSSKVTRAQIEDTLRRDHQLREAPDTAEKAKSHLEVPLEENVNRRVLEEGSVEARTIEDAIAVLSVAEEAADRHPERRMRAAFTAFEEAQLPRLKQENPNMRLSQLKQLLKKEWLRSPDNPMNQRAVPFNAPK
# B3: EIF5B (protein, UniProt O60841 1-1220, looked up)
# Eukaryotic translation …: MGKKQKNKSEDSTKDDIDLDALAAEIEGAGAAKEQEPQKSKGKKKKEKKKQDFDEDDILKELEELSLEAQGIKADRETVAVKPTENNEEEFTSKDKKKKGQKGKKQSFDDNDSEELEDKDSKSKKTAKPKVEMYSGSDDDDDFNKLPKKAKGKAQKSNKKWDGSEEDEDNSKKIKERSRINSSGESGDESDEFLQSRKGQKKNQKNKPGPNIESGNEDDDASFKIKTVAQKKAEKKERERKKRDEEKAKLRKLKEKEELETGKKDQSKQKESQRKFEEETVKSKVTVDTGVIPASEEKAETPTAAEDDNEGDKKKKDKKKKKGEKEEKEKEKKKGPSKATVKAMQEALAKLKEEEERQKREEEERIKRLEELEAKRKEEERLEQEKRERKKQKEKERKERLKKEGKLLTKSQREARARAEATLKLLQAQGVEVPSKDSLPKKRPIYEDKKRKKIPQQLESKEVSESMELCAAVEVMEQGVPEKEETPPPVEPEEEEDTEDAGLDDWEAMASDEETEKVEGNKVHIEVKENPEEEEEEEEEEEEDEESEEEEEEEGESEGSEGDEEDEKVSDEKDSGKTLDKKPSKEMSSDSEYDSDDDRTKEERAYDKAKRRIEKRRLEHSKNVNTEKLRAPIICVLGHVDTGKTKILDKLRHTHVQDGEAGGITQQIGATNVPLEAINEQTKMIKNFDRENVRIPGMLIIDTPGHESFSNLRNRGSSLCDIAILVVDIMHGLEPQTIESINLLKSKKCPFIVALNKIDRLYDWKKSPDSDVAATLKKQKKNTKDEFEERAKAIIVEFAQQGLNAALFYENKDPRTFVSLVPTSAHTGDGMGSLIYLLVELTQTMLSKRLAHCEELRAQVMEVKALPGMGTTIDVILINGRLKEGDTIIVPGVEGPIVTQIRGLLLPPPMKELRVKNQYEKHKEVEAAQGVKILGKDLEKTLAGLPLLVAYKEDEIPVLKDELIHELKQTLNAIKLEEKGVYVQASTLGSLEALLEFLKTSEVPYAGINIGPVHKKDVMKASVMLEHDPQYAVILAFDVRIERDAQEMADSLGVRIFSAEIIYHLFDAFTKYRQDYKKQKQEEFKHIAVFPCKIKILPQYIFNSRDPIVMGVTVEAGQVKQGTPMCVPSKNFVDIGIVTSIEINHKQVDVAKKGQEVCVKIEPIPGESPKMFGRHFEATDILVSKISRQSIDALKDWFRDEMQKSDWQLIVELKKVFEII
# B4: ATAD3A (protein, UniProt Q9NVI7 2-586, looked up)
# ATPase family AAA …: SWLFGINKGPKGEGAGPPPPLPPAQPGAEGGGDRGLGDRPAPKDKWSNFDPTGLERAAKAARELEHSRYAKDALNLAQMQEQTLQLEQQSKLKEYEAAVEQLKSEQIRAQAEERRKTLSEETRQHQARAQYQDKLARQRYEDQLKQQQLLNEENLRKQEESVQKQEAMRRATVEREMELRHKNEMLRVEAEARARAKAERENADIIREQIRLKAAEHRQTVLESIRTAGTLFGEGFRAFVTDWDKVTATVAGLTLLAVGVYSAKNATLVAGRFIEARLGKPSLVRETSRITVLEALRHPIQVSRRLLSRPQDALEGVVLSPSLEARVRDIAIATRNTKKNRSLYRNILMYGPPGTGKTLFAKKLALHSGMDYAIMTGGDVAPMGREGVTAMHKLFDWANTSRRGLLLFVDEADAFLRKRATEKISEDLRATLNAFLYRTGQHSNKFMLVLASNQPEQFDWAINDRINEMVHFDLPGQEERERLVRMYFDKYVLKPATEGKQRLKLAQFDYGRKCSEVARLTEGMSGREIAQLAVSWQATAYASEDGVLTEAMMDTRVQDAVQQHQQKMCWLKAEGPGRGDEPSPS
# B5: SLC25A13 (protein, UniProt Q9UJS0 2-675, looked up)
# Electrogenic …: AAAKVALTKRADPAELRTIFLKYASIEKNGEFFMSPNDFVTRYLNIFGESQPNPKTVELLSGVVDQTKDGLISFQEFVAFESVLCAPDALFMVAFQLFDKAGKGEVTFEDVKQVFGQTTIHQHIPFNWDSEFVQLHFGKERKRHLTYAEFTQFLLEIQLEHAKQAFVQRDNARTGRVTAIDFRDIMVTIRPHVLTPFVEECLVAAAGGTTSHQVSFSYFNGFNSLLNNMELIRKIYSTLAGTRKDVEVTKEEFVLAAQKFGQVTPMEVDILFQLADLYEPRGRMTLADIERIAPLEEGTLPFNLAEAQRQKASGDSARPVLLQVAESAYRFGLGSVAGAVGATAVYPIDLVKTRMQNQRSTGSFVGELMYKNSFDCFKKVLRYEGFFGLYRGLLPQLLGVAPEKAIKLTVNDFVRDKFMHKDGSVPLAAEILAGGCAGGSQVIFTNPLEIVKIRLQVAGEITTGPRVSALSVVRDLGFFGIYKGAKACFLRDIPFSAIYFPCYAHVKASFANEDGQVSPGSLLLAGAIAGMPAASLVTPADVIKTRLQVAARAGQTTYSGVIDCFRKILREEGPKALWKGAGARVFRSSPQFGVTLLTYELLQRWFYIDFGGVKPMGSEPVPKSRINLPAPNPDHVGGYKLAVATFAGIENKFGLYLPLFKPSVSTSKAIGGGP
# B6: ABCF2 (protein, UniProt Q9UG63 1-623, looked up)
# ATP-binding cassette …: MPSDLAKKKAAKKKEAAKARQRPRKGHEENGDVVTEPQVAEKNEANGRETTEVDLLTKELEDFEMKKAAARAVTGVLASHPNSTDVHIINLSLTFHGQELLSDTKLELNSGRRYGLIGLNGIGKSMLLSAIGKREVPIPEHIDIYHLTREMPPSDKTPLHCVMEVDTERAMLEKEAERLAHEDAECEKLMELYERLEELDADKAEMRASRILHGLGFTPAMQRKKLKDFSGGWRMRVALARALFIRPFMLLLDEPTNHLDLDACVWLEEELKTFKRILVLVSHSQDFLNGVCTNIIHMHNKKLKYYTGNYDQYVKTRLELEENQMKRFHWEQDQIAHMKNYIARFGHGSAKLARQAQSKEKTLQKMMASGLTERVVSDKTLSFYFPPCGKIPPPVIMVQNVSFKYTKDGPCIYNNLEFGIDLDTRVALVGPNGAGKSTLLKLLTGELLPTDGMIRKHSHVKIGRYHQHLQEQLDLDLSPLEYMMKCYPEIKEKEEMRKIIGRYGLTGKQQVSPIRNLSDGQKCRVCLAWLAWQNPHMLFLDEPTNHLDIETIDALADAINEFEGGMMLVSHDFRLIQQVAQEIWVCEKQTITKWPGDILAYKEHLKSKLVDEEPQLTKRTHNV
# B7: DDOST (protein, UniProt P39656 43-456, looked up)
# Dolichyl-diphosphooligosacchar …: SGPRTLVLLDNLNVRETHSLFFRSLKDRGFELTFKTADDPSLSLIKYGEFLYDNLIIFSPSVEDFGGNINVETISAFIDGGGSVLVAASSDIGDPLRELGSECGIEFDEEKTAVIDHHNYDISDLGQHTLIVADTENLLKAPTIVGKSSLNPILFRGVGMVADPDNPLVLDILTGSSTSYSFFPDKPITQYPHAVGKNTLLIAGLQARNNARVIFSGSLDFFSDSFFNSAVQKAAPGSQRYSQTGNYELAVALSRWVFKEEGVLRVGPVSHHRVGETAPPNAYTVTDLVEYSIVIQQLSNGKWVPFDGDDIQLEFVRIDPFVRTFLKKKGGKYSVQFKLPDVYGVFQFKVDYNRLGYTHLYSSTQVSVRPLQHTQYERFIPSAYPYYASAFSMMLGLFIFSIVFLHMKEKEKSD
# B8: DHX36 (protein, UniProt Q9H2U1 1-1008, looked up)
# ATP-dependent DNA/RNA …: MSYDYHQNWGRDGGPRSSGGGYGGGPAGGHGGNRGSGGGGGGGGGGRGGRGRHPGHLKGREIGMWYAKKQGQKNKEAERQERAVVHMDERREEQIVQLLNSVQAKNDKESEAQISWFAPEDHGYGTEVSTKNTPCSENKLDIQEKKLINQEKKMFRIRNRSYIDRDSEYLLQENEPDGTLDQKLLEDLQKKKNDLRYIEMQHFREKLPSYGMQKELVNLIDNHQVTVISGETGCGKTTQVTQFILDNYIERGKGSACRIVCTQPRRISAISVAERVAAERAESCGSGNSTGYQIRLQSRLPRKQGSILYCTTGIILQWLQSDPYLSSVSHIVLDEIHERNLQSDVLMTVVKDLLNFRSDLKVILMSATLNAEKFSEYFGNCPMIHIPGFTFPVVEYLLEDVIEKIRYVPEQKEHRSQFKRGFMQGHVNRQEKEEKEAIYKERWPDYVRELRRRYSASTVDVIEMMEDDKVDLNLIVALIRYIVLEEEDGAILVFLPGWDNISTLHDLLMSQVMFKSDKFLIIPLHSLMPTVNQTQVFKRTPPGVRKIVIATNIAETSITIDDVVYVIDGGKIKETHFDTQNNISTMSAEWVSKANAKQRKGRAGRVQPGHCYHLYNGLRASLLDDYQLPEILRTPLEELCLQIKILRLGGIAYFLSRLMDPPSNEAVLLSIRHLMELNALDKQEELTPLGVHLARLPVEPHIGKMILFGALFCCLDPVLTIAASLSFKDPFVIPLGKEKIADARRKELAKDTRSDHLTVVNAFEGWEEARRRGFRYEKDYCWEYFLSSNTLQMLHNMKGQFAEHLLGAGFVSSRNPKDPESNINSDNEKIIKAVICAGLYPKVAKIRLNLGKKRKMVKVYTKTDGLVAVHPKSVNVEQTDFHYNWLIYHLKMRTSSIYLYDCTEVSPYCLLFFGGDISIQKDNDQETIAVDEWIVFQSPARIAHLVKELRKELDILLQEKIESPHPVDWNDTKSRDCAVLSAIIDLIKTQEKATPRNFPPRFQDGYYS
# System: GFP-14-3-3β and its binding proteins
# Test: GFP-14-3-3β co-IP with LC-MS/MS label-free quantification, untreated versus PP1c-treated
# Design: species or system human
# Settings: log2 difference; pairwise comparison PP1 vs untreated, label-free quantification, 3 replicates each
row,"Difference (log2), PP1 vs untreated",Molecule
1,1.432,B1
2,1.402,B2
3,1.436,B3
4,1.381,B4
5,1.412,B5
6,1.378,B6
7,1.381,B7
8,1.434,B8

# System: GFP-14-3-3β
# Test: GFP-14-3-3β co-IP with LC-MS/MS, untreated GFP-14-3-3β versus GFP control (14-3-3 interactome)
# Assay type: binding, human
# Settings: log2 difference; pairwise comparison untreated vs GFP, label-free quantification, 3 replicates each
row,Molecule,"Difference (log2), untreated vs GFP"
1,B1,-0.6332
2,B2,0.7429
3,B3,0.212
4,B4,-0.296
5,B5,0.4406
6,B6,-0.5576
7,B7,-0.4067
8,B8,0.06686
